Experimental data published in IntAct's records for PubMed 24019758.

B1: Transcription factor p65 (Mus musculus), Q04207 (parent)
chain: MDDLFPLIFPSEPAQASGPYVEIIEQPKQRGMRFRYKCEGRSAGSIPGERSTDTTKTHPTIKINGYTGPGTVRISLVTKDPPHRPHPHELVGKDCRDGYYEADLCPDRSIHSFQNLGIQCVKKRDLEQAISQRIQTNNNPFHVPIEEQRGDYDLNAVRLCFQVTVRDPAGRPLLLTPVLSHPIFDNRAPNTAELKICRVNRNSGSCLGGDEIFLLCDKVQKEDIEVYFTGPGWEARGSFSQADVHRQVAIVFRTPPYADPSLQAPVRVSMQLRRPSDRELSEPMEFQYLPDTDDRHRIEEKRKRTYETFKSIMKKSPFNGPTEPRPPTRRIAVPTRNSTSVPKPAPQPYTFPASLSTINFDEFSPMLLPSGQISNQALALAPSSAPVLAQTMVPSSAMVPLAQPPAPAPVLTPGPPQSLSAPVPKSTQAGEGTLSEALLHLQFDADEDLGALLGNSTDPGVFTDLASVDNSEFQQLLNQGVSMSHSTAEPMLMEYPEAITRLVTGSQRPPDPAPTPLGTSGLPNGLSGDEDFSSIADMDFSALLSQISS

Key:
cbp_mouse Crebbp, P45481 [1] = variants of: B1; settings: with cbp_mouse Crebbp
[2] = variants of: B1; settings: with ep300_mouse Ep300, B2RWS6
cbp_mouse Crebbp, P45481 [3] = variants of: B1; settings: with cbp_mouse Crebbp; remark: listed apart in the source
cbp_mouse Crebbp, P45481 [4] = variants of: B1; settings: with cbp_mouse Crebbp; remark: listed apart in the source
cbp_mouse Crebbp, P45481 [5] = variants of: B1; settings: with cbp_mouse Crebbp; remark: listed apart in the source

ep300_mouse Ep300, B2RWS6, sequence (B2RWS6 whole entry): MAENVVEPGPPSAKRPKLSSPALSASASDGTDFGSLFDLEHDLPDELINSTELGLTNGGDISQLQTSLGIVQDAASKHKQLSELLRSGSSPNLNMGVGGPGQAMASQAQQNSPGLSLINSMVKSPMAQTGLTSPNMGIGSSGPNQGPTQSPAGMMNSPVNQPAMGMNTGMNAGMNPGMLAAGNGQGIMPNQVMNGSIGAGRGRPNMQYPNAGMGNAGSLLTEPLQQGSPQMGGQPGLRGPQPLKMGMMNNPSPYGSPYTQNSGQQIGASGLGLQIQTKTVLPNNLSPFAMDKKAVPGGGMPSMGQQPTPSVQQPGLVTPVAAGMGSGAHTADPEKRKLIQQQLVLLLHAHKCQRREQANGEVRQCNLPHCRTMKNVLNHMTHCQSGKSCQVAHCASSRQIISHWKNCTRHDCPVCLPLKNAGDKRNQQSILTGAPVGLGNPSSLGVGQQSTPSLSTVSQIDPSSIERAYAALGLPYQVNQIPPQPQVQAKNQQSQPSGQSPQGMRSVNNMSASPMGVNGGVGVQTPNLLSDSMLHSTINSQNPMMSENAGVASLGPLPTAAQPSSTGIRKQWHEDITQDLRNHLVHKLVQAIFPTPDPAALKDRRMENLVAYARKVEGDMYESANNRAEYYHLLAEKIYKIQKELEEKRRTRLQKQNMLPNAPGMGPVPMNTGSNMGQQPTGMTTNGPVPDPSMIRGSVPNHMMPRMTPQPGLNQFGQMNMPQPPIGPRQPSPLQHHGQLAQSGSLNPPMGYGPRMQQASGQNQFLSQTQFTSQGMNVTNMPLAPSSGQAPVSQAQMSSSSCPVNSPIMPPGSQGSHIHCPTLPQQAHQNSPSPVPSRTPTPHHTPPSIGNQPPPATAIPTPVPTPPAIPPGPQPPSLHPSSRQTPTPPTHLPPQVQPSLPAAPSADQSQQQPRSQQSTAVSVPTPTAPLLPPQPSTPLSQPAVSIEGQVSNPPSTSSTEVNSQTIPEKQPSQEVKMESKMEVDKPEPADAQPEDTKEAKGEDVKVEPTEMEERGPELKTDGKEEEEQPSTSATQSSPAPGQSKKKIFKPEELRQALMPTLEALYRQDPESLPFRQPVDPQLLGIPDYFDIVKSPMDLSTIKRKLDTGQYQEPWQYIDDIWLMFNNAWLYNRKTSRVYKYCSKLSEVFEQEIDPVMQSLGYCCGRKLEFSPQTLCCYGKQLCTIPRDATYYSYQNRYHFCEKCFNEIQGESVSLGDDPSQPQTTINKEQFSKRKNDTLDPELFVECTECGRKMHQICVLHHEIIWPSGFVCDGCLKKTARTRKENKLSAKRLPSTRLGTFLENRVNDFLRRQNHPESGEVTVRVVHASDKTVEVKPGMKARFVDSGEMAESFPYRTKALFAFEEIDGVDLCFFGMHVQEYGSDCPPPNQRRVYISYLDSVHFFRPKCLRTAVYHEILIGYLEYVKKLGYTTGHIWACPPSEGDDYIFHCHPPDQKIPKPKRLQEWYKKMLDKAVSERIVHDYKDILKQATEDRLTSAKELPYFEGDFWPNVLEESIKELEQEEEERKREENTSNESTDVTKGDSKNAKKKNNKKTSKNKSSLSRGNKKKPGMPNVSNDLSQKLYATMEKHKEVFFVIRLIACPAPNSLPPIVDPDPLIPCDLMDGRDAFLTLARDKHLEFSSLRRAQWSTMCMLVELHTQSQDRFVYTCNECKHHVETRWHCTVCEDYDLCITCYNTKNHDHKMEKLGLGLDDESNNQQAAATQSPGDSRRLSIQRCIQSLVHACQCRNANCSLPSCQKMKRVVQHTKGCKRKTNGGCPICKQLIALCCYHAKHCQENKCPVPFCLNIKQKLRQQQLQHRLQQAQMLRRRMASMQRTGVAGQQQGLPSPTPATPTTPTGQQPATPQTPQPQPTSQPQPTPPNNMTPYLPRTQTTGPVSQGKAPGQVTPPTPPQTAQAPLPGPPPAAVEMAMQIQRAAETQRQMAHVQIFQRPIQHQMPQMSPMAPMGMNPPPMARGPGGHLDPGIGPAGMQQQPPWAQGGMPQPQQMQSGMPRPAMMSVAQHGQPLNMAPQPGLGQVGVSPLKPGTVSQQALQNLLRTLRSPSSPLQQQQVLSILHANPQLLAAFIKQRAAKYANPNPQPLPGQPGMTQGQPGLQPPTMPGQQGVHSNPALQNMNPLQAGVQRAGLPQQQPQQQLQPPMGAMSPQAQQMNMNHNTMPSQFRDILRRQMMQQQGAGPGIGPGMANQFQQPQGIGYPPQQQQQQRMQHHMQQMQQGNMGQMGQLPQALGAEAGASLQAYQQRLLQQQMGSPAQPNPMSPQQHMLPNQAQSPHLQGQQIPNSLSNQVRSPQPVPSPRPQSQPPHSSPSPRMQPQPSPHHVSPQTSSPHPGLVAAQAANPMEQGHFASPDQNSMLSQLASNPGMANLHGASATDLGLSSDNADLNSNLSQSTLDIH
cbp_mouse Crebbp, P45481, sequence (P45481 whole entry): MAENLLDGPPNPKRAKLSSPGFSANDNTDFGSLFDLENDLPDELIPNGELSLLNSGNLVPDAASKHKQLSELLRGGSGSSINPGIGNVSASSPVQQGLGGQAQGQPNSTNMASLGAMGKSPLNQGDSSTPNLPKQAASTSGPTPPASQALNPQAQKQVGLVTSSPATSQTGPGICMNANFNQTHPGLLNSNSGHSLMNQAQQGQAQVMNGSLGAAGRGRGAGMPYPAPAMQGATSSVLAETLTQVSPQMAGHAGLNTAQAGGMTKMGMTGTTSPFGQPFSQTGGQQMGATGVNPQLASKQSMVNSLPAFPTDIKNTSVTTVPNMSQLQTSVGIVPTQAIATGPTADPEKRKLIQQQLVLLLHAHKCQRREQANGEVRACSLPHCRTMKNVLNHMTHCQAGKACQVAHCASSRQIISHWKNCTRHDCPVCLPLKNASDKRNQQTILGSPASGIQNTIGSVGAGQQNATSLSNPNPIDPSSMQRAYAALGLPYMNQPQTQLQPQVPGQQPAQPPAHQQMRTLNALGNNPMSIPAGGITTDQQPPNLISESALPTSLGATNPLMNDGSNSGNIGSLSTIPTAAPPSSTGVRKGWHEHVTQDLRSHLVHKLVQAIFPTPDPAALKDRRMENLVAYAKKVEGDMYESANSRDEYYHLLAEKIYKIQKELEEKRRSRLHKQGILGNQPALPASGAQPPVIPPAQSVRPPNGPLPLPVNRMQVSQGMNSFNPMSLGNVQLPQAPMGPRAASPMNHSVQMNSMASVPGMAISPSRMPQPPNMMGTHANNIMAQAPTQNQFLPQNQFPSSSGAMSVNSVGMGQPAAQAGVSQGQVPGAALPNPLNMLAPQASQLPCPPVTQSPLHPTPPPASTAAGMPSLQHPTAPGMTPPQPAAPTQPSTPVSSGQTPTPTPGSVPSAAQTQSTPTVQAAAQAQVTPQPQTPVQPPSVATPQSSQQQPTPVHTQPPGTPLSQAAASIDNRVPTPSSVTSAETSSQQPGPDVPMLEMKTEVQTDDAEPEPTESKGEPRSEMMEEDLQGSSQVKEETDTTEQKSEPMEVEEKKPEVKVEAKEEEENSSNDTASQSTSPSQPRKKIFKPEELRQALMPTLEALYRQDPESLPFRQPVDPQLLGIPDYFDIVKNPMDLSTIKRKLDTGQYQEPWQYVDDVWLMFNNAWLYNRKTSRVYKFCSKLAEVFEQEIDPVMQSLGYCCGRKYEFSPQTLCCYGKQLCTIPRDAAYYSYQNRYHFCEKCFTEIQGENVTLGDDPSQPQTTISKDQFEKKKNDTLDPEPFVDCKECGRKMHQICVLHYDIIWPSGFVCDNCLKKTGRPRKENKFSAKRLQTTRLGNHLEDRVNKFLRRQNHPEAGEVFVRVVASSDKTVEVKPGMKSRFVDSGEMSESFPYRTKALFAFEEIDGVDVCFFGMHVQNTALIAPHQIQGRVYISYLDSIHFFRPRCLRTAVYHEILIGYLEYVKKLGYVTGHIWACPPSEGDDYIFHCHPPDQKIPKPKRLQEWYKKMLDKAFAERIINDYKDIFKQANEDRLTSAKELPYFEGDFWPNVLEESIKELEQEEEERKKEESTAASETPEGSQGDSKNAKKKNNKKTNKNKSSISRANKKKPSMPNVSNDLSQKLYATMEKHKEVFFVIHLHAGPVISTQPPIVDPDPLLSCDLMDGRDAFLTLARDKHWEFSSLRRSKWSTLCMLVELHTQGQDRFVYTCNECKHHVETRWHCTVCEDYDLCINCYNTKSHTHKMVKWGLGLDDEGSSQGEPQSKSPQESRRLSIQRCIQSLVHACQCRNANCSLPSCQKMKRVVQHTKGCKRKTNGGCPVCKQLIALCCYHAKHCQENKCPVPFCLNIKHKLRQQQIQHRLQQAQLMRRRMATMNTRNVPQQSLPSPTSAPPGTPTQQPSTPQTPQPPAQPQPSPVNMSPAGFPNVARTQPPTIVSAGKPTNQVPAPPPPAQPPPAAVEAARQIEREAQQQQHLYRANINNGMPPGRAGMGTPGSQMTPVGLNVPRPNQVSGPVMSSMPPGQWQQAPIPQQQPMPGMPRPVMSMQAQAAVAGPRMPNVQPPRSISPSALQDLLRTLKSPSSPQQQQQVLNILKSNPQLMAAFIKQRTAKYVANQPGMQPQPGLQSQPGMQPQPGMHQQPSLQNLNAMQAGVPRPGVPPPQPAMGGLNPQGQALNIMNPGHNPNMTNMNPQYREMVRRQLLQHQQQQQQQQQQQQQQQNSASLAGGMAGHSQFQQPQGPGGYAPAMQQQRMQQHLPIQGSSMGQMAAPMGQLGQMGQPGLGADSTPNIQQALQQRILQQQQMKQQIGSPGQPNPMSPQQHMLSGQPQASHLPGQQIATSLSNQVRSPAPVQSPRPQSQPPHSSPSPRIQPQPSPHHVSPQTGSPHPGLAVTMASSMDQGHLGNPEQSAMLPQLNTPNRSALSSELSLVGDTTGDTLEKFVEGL

MDDLFPLIFPSEPAQASGPYVEIIEQPKQRGMRFRYKCEGRSAGSIPGERSTDTTKTHPTIKINGYTGPGTVRISLVTKDPPHRPHPHELVGKDCRDGYYEADLCPDRSIHSFQNLGIQCVKKRDLEQAISQRIQTNNNPFHVPIEEQRGDYDLNAVRLCFQVTVRDPAGRPLLLTPVLSHPIFDNRAPNTAELKICRVNRNSGSCLGGDEIFLLCDKVQKEDIEVYFTGPGWEARGSFSQADVHRQVAIVFRTPPYADPSLQAPVRVSMQLRRPSDRELSEPMEFQYLPDTDDRHRIEEKRKRTYETFKSIMKKSPFNGPTEPRPPTRRIAVPTRNSTSVPKPAPQPYTFPASLSTINFDEFSPMLLPSGQISNQALALAPSSAPVLAQTMVPSSAMVPLAQPPAPAPVLTPGPPQSLSAPVPKSTQAGEGTLSEALLHLQFDADEDLGALLGNSTDPGVFTDLAAVDNSEFQQLLNQGVSMSHSTAEPMLMEYPEAITRLVTGSQRPPDPAPTPLGTSGLPNGLSGDEDFSSIADMDFSALLSQISS [S467A]
effect of a mutation on the interaction (cbp_mouse Crebbp, P45481 [1]): decreasing interaction strength
effect of a mutation on the interaction [2]: decreasing interaction strength

MDDLFPLIFPSEPAQASGPYVEIIEQPKQRGMRFRYKCEGRSAGSIPGERSTDTTKTHPTIKINGYTGPGTVRISLVTKDPPHRPHPHELVGKDCRDGYYEADLCPDRSIHSFQNLGIQCVKKRDLEQAISQRIQTNNNPFHVPIEEQRGDYDLNAVRLCFQVTVRDPAGRPLLLTPVLSHPIFDNRAPNTAELKICRVNRNSGSCLGGDEIFLLCDKVQKEDIEVYFTGPGWEARGSFSQADVHRQVAIVFRTPPYADPSLQAPVRVSMQLRRPADRELSEPMEFQYLPDTDDRHRIEEKRKRTYETFKSIMKKSPFNGPTEPRPPTRRIAVPTRNSTSVPKPAPQPYTFPASLSTINFDEFSPMLLPSGQISNQALALAPSSAPVLAQTMVPSSAMVPLAQPPAPAPVLTPGPPQSLSAPVPKSTQAGEGTLSEALLHLQFDADEDLGALLGNSTDPGVFTDLASVDNSEFQQLLNQGVSMSHSTAEPMLMEYPEAITRLVTGSQRPPDPAPTPLGTSGLPNGLSGDEDFSSIADMDFSALLSQISS [S276A]
effect of a mutation on the interaction (cbp_mouse Crebbp, P45481 [1]): decreasing interaction strength
effect of a mutation on the interaction [2]: decreasing interaction strength

MDDLFPLIFPSEPAQASGPYVEIIEQPKQRGMRFRYKCEGRSAGSIPGERSTDTTKTHPTIKINGYTGPGTVRISLVTKDPPHRPHPHELVGKDCRDGYYEADLCPDRSIHSFQNLGIQCVKKRDLEQAISQRIQTNNNPFHVPIEEQRGDYDLNAVRLCFQVTVRDPAGRPLLLTPVLSHPIFDNRAPNTAELKICRVNRNSGSCLGGDEIFLLCDKVQKEDIEVYFTGPGWEARGSFSQADVHRQVAIVFRTPPYADPSLQAPVRVSMQLRRPSDRELSEPMEFQYLPDTDDRHRIEEKRKRTYETFKSIMKKSPFNGPTEPRPPTRRIAVPTRNSTSVPKPAPQPYTFPASLSTINFDEFSPMLLPSGQISNQALALAPSSAPVLAQTMVPSSAMVPLAQPPAPAPVLTPGPPQSLSAPVPKSTQAGEGTLSEALLHLQFDADEDAGALLGNSTDPGVFTDLASVDNSEFQQLLNQGVSMSHSTAEPMLMEYPEAITRLVTGSQRPPDPAPTPLGTSGLPNGLSGDEDFSSIADMDFSALLSQISS [L449A]
effect of a mutation on the interaction (cbp_mouse Crebbp, P45481 [3]): disrupting interaction strength
effect of a mutation on the interaction (cbp_mouse Crebbp, P45481 [4]): decreasing interaction strength

MDDLFPLIFPSEPAQASGPYVEIIEQPKQRGMRFRYKCEGRSAGSIPGERSTDTTKTHPTIKINGYTGPGTVRISLVTKDPPHRPHPHELVGKDCRDGYYEADLCPDRSIHSFQNLGIQCVKKRDLEQAISQRIQTNNNPFHVPIEEQRGDYDLNAVRLCFQVTVRDPAGRPLLLTPVLSHPIFDNRAPNTAELKICRVNRNSGSCLGGDEIFLLCDKVQKEDIEVYFTGPGWEARGSFSQADVHRQVAIVFRTPPYADPSLQAPVRVSMQLRRPSDRELSEPMEFQYLPDTDDRHRIEEKRKRTYETFKSIMKKSPFNGPTEPRPPTRRIAVPTRNSTSVPKPAPQPYTFPASLSTINFDEFSPMLLPSGQISNQALALAPSSAPVLAQTMVPSSAMVPLAQPPAPAPVLTPGPPQSLSAPVPKSTQAGEGTLSEALLHLQFDADEDAGALLGNSTDPGVFTDLAAVDNSEAQQLLNQGVSMSHSTAEPMLMEYPEAITRLVTGSQRPPDPAPTPLGTSGLPNGLSGDEDFSSIADMDFSALLSQISS [L449A;S467A;F473A]
effect of a mutation on the interaction (cbp_mouse Crebbp, P45481 [5]): disrupting interaction strength
effect of a mutation on the interaction (cbp_mouse Crebbp, P45481 [1]): decreasing interaction strength

MDDLFPLIFPSEPAQASGPYVEIIEQPKQRGMRFRYKCEGRSAGSIPGERSTDTTKTHPTIKINGYTGPGTVRISLVTKDPPHRPHPHELVGKDCRDGYYEADLCPDRSIHSFQNLGIQCVKKRDLEQAISQRIQTNNNPFHVPIEEQRGDYDLNAVRLCFQVTVRDPAGRPLLLTPVLSHPIFDNRAPNTAELKICRVNRNSGSCLGGDEIFLLCDKVQKEDIEVYFTGPGWEARGSFSQADVHRQVAIVFRTPPYADPSLQAPVRVSMQLRRPSDRELSEPMEFQYLPDTDDRHRIEEKRKRTYETFKSIMKKSPFNGPTEPRPPTRRIAVPTRNSTSVPKPAPQPYTFPASLSTINFDEFSPMLLPSGQISNQALALAPSSAPVLAQTMVPSSAMVPLAQPPAPAPVLTPGPPQSLSAPVPKSTQAGEGTLSEALLHLQFDADEDLGALLGNSTDPGVFTDLASVDNSEAQQLLNQGVSMSHSTAEPMLMEYPEAITRLVTGSQRPPDPAPTPLGTSGLPNGLSGDEDFSSIADMDFSALLSQISS [F473A]
effect of a mutation on the interaction (cbp_mouse Crebbp, P45481 [3]): disrupting interaction strength

MDDLFPLIFPSEPAQASGPYVEIIEQPKQRGMRFRYKCEGRSAGSIPGERSTDTTKTHPTIKINGYTGPGTVRISLVTKDPPHRPHPHELVGKDCRDGYYEADLCPDRSIHSFQNLGIQCVKKRDLEQAISQRIQTNNNPFHVPIEEQRGDYDLNAVRLCFQVTVRDPAGRPLLLTPVLSHPIFDNRAPNTAELKICRVNRNSGSCLGGDEIFLLCDKVQKEDIEVYFTGPGWEARGSFSQADVHRQVAIVFRTPPYADPSLQAPVRVSMQLRRPSDRELSEPMEFQYLPDTDDRHRIEEKRKRTYETFKSIMKKSPFNGPTEPRPPTRRIAVPTRNSTSVPKPAPQPYTFPASLSTINFDEFSPMLLPSGQISNQALALAPSSAPVLAQTMVPSSAMVPLAQPPAPAPVLTPGPPQSLSAPVPKSTQAGEGTLSEALLHLQFDADEDLGALLGNSTDPGVFTDAASVDNSEFQQLLNQGVSMSHSTAEPMLMEYPEAITRLVTGSQRPPDPAPTPLGTSGLPNGLSGDEDFSSIADMDFSALLSQISS [L465A]
effect of a mutation on the interaction (cbp_mouse Crebbp, P45481 [3]): disrupting interaction strength
effect of a mutation on the interaction (cbp_mouse Crebbp, P45481 [4]): decreasing interaction strength

MDDLFPLIFPSEPAQASGPYVEIIEQPKQRGMRFRYKCEGRSAGSIPGERSTDTTKTHPTIKINGYTGPGTVRISLVTKDPPHRPHPHELVGKDCRDGYYEADLCPDRSIHSFQNLGIQCVKKRDLEQAISQRIQTNNNPFHVPIEEQRGDYDLNAVRLCFQVTVRDPAGRPLLLTPVLSHPIFDNRAPNTAELKICRVNRNSGSCLGGDEIFLLCDKVQKEDIEVYFTGPGWEARGSFSQADVHRQVAIVFRTPPYADPSLQAPVRVSMQLRRPSDRELSEPMEFQYLPDTDDRHRIEEKRKRTYETFKSIMKKSPFNGPTEPRPPTRRIAVPTRNSTSVPKPAPQPYTFPASLSTINFDEFSPMLLPSGQISNQALALAPSSAPVLAQTMVPSSAMVPLAQPPAPAPVLTPGPPQSLSAPVPKSTQAGEGTLSEALLHLQFDADEDAGALLGNSTDPGVFTDLASVDNSEAQQLLNQGVSMSHSTAEPMLMEYPEAITRLVTGSQRPPDPAPTPLGTSGLPNGLSGDEDFSSIADMDFSALLSQISS [L449A;F473A]
effect of a mutation on the interaction (cbp_mouse Crebbp, P45481 [5]): disrupting interaction strength
effect of a mutation on the interaction (cbp_mouse Crebbp, P45481 [3]): disrupting interaction strength
effect of a mutation on the interaction (cbp_mouse Crebbp, P45481 [1]): decreasing interaction strength
effect of a mutation on the interaction [2]: decreasing interaction strength
